According to US20220389095A1 (AGENUS, published 2022):

Biological target: T1, human TIGIT (human, UniProt Q495A1 22-244)
T1 construct: whole, on cells; The assays used cell-surface TIGIT; also called T-cell immunoreceptor with Ig and ITIM domains; VSIG9
T1 sequence (looked up): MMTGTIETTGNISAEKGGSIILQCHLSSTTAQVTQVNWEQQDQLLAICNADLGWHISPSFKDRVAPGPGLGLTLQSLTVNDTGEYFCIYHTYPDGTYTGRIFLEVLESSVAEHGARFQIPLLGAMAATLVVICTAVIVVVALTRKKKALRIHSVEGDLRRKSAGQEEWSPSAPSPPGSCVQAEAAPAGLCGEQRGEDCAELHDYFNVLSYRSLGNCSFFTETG
Experiment: flow cytometry on anti-CD3-activated human PBMC, gated on CD4+ and CD8+ T cells
Protocol: After four days, the sample plates were centrifuged for two minutes at 2000 rpm and then supernatants were discarded. Samples were blocked with FcγR Block prepared in FACs buffer at 5 μL per 100 μL for 10 minutes. Sample plates were then centrifuged for two minutes at 2000 rpm and the supernatant was discarded. The cells were then resuspended in 100 μL of BA159 or a relevant isotype control antibody. To prepare antibodies, each antibody was diluted to 40 μg/mL in buffer for a final volume of 200 μL. Antibodies were then serially diluted 1 to 4 for a total of 12 dilutions ranging from 40 μg/mL to 0.00000954 μg/mL.
Cells were then resuspended in a cocktail of fluorescently labeled antibodies prepared in FACs buffer. 100 μL of antibody was add per well of a round-bottom 96-well plate. The sample plate was incubated for 20 minutes on ice. Cells were then washed by addition of cold sample buffer, centrifuged for two minutes at 2000 rpm, and supernatants were discarded. This wash was repeated once. […]
Antibody binding was measured by flow cytometry using a BD LSR Fortessa Flow Cytometer. […] 100,000 events were recorded for each sample. Samples were analyzed by sequentially gating on the following populations: FSC-A vs SSC-A, FSC-H vs FSC-A, SSC-A vs LIVE/DEAD, and CD4 vs CD8 Mean fluorescence intensity (MFI) was calculated.

- binding result: binds
B1: BA159 (antibody, human IgG1, lambda)
heavy: EVQLVQSGAEVKKPGSSVKVSCKASGYTFASYGISWVRQAPGQGLEWMGGITPFFNRVDVAEKFQGRVTITADKSTSTAYIELSSLRSEDTAVYYCARDLRRGGVGDAFDIWGRGTLVTVSSASTKGPSVFPLAPSSKSTSGGTAALGCLVKDYFPEPVTVSWNSGALTSGVHTFPAVLQSSGLYSLSSVVTVPSSSLGTQTYICNVNHKPSNTKVDKRVEPKSCDKTHTCPPCPAPELLGGPDVFLFPPKPKDTLMISRTPEVTCVVVDVSHEDPEVKFNWYVDGVEVHNAKTKPREEQYNSTYRVVSVLTVLHQDWLNGKEYKCKVSNKALPLPEEKTISKAKGQPREPQVYTLPPSREEMTKNQVSLTCLVKGFYPSDIAVEWESNGQPENNYKTTPPVLDSDGSFFLYSKLTVDKSRWQQGNVFSCSVMHEALHNHYTQKSLSLSPGK
light: QSALTQPRSVSGSPGQSVTISCTGTSSDVGSHNYVSWYQQHPGKAPKLMIYEVSYRPSGVSNRFSGSKSGNTASLTISGLQAEDEADYYCSSYTPSSATVFGAGTKLTVLGQPKAAPSVTLFPPSSEELQANKATLVCLISDFYPGAVTVAWKADSSPVKAGVETTTPSKQSNNKYAASSYLSLTPEQWKSHRSYSCQVTHEGSTVEKTVAPTECS
notes: also called anti-TIGIT antibody BA159
